Reference: PMC10341550, “Beta-Secretase 1 Recruits Amyloid-Beta Precursor Protein to ROCK2 Kinase, Resulting in Erroneous Phosphorylation and Beta-Amyloid Plaque Formation” (International Journal of Molecular Sciences, 2023)

Columns and labels:
[1] = target: Full-length ROCK2 protein (human ROCK2 1–1388) (human) (UniProt O75116); experiment: SPR; Biacore X, CM5; full-length ROCK2 amine-coupled (1700 RU); analyte 7 µM with 100 µM MgATP (15-fold molar excess); HBS-EP pH 7.4, 10 µL/min
[2] = target: BACE1 cytoplasmic domain peptide (residues 479–501), N-terminally labelled with 5-FAM; experiment: fluorescence polarisation; direct titration: 50 nM fluorescein-labelled BACE1 peptide, dilution series of ROCK2; 20 mM Tris pH 8.0, 100 mM NaCl, 0.05% Brij35P, 2 mM DTT; 384-well plates

Sequence of Full-length ROCK2 protein (human ROCK2 1–1388) (human) (O75116 whole entry, the tested form may be a part): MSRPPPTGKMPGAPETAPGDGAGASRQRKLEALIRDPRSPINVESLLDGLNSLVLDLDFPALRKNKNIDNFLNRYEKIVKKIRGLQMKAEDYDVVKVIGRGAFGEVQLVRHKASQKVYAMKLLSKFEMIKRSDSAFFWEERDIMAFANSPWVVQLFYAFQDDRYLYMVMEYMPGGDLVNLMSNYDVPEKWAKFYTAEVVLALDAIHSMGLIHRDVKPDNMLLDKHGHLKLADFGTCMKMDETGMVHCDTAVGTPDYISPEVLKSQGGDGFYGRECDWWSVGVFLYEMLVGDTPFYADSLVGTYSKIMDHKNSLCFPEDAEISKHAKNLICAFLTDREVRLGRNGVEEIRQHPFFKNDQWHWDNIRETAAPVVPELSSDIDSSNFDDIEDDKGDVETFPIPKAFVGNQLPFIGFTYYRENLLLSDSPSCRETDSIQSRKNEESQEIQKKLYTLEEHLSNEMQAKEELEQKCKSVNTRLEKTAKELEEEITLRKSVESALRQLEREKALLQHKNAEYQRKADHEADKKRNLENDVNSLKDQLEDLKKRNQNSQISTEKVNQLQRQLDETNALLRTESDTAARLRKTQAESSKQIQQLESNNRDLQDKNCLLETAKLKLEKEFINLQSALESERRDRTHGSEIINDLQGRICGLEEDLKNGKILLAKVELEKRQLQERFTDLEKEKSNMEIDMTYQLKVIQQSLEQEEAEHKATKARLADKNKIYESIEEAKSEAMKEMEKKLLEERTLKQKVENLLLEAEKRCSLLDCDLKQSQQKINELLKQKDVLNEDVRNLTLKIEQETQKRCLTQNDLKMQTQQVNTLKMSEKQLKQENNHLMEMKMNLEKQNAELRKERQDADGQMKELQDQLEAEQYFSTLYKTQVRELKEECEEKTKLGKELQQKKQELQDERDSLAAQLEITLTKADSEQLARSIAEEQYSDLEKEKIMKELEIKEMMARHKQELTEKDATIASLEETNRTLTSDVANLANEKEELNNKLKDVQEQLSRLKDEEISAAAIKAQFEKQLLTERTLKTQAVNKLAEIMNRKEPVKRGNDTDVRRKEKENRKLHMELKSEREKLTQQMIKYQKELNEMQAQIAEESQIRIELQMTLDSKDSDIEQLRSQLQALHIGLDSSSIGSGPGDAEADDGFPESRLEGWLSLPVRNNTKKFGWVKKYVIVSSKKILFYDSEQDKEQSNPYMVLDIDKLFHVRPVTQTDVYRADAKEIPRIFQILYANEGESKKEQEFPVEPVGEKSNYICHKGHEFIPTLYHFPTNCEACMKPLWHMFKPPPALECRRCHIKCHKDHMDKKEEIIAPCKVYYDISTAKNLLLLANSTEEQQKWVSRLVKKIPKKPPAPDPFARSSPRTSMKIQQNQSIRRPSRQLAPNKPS
Sequence of Full-length ROCK2 protein (human ROCK2 1–1388) (O75116 whole entry): as the sequence (O75116 whole entry, the tested form may be a part) above
Sequence of ROCK2 kinase domain (27–417) construct (O75116 27-417): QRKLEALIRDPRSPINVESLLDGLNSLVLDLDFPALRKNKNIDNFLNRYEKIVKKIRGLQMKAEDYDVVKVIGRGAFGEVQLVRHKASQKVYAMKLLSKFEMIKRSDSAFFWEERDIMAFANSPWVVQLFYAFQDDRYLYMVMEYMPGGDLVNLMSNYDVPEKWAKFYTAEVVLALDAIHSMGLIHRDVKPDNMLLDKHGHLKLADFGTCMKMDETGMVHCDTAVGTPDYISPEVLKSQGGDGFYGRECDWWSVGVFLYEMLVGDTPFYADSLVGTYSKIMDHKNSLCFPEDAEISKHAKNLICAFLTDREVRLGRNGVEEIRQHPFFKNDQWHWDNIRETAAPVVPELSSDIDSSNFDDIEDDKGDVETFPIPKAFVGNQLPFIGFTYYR

BACE1 cytoplasmic domain peptide (residues 479–501), free form
percent of the theoretical signal [1]: 50% | response units [1]: 11 RU

Full-length ROCK2 protein (human ROCK2 1–1388) (from UniProt O75116 1-1388) (enzyme)
Kd [2]: 18 µM

ROCK2 kinase domain (27–417) construct (from UniProt O75116 27-417) (domain or fragment)
Kd [2]: 18 µM
